In publication PMC11555717 (Cancer Medicine, 2024):

Tests used:
[1] = EV-203 safety/tolerability: adverse events; assay type: in vivo, human
Description: Safety assessments included physical and ophthalmologic examinations, clinical laboratory tests, 12‐lead electrocardiography, and ECOG PS.
PFS was defined as the time from the start of the study treatment to the first documentation of objective tumor progression (i.e., progressive disease per RECIST version 1.1) by IRC or investigator assessment (whichever was specified) or to death due to any cause, whichever came first. OS was defined as the time from the start of study treatment to the date of death due to any cause. […] AEs of special interest were medical concepts of composite terms based on search criteria (standard Medical Dictionary for Regulatory Activities query or sponsor‐specific query/customized Medical Dictionary for Regulatory Activities query). For example, skin reactions included categories of rash and severe cutaneous adverse reactions (which included specific events such as drug eruption, eczema, dermatitis, mouth ulceration, stomatitis, etc.). Data for treatment‐related AEs (TRAEs) were evaluated by the investigator.
All patients who received any amount of study drug were included in the primary analyses of efficacy endpoints and safety analyses.

[2] = EV-203 pharmacokinetics of ADC, TAb and free MMAE in serum or plasma; assay type: in vivo, human; details: for Serum concentration at end of infusion / AUC0–7d / C max: mean (SD); for AUC0–7d: 1.25 mg/kg IV
Procedure: In the PK cohort (i.e., PK analysis set), intensive PK sampling was performed wherein blood samples for analysis of ADC, total antibody (TAb), and free (unconjugated) MMAE were collected at prespecified time points. […] Blood samples for antitherapeutic antibodies (ATAs) were collected predose on Day 1 of cycles 1 to 4, 6, 8, 10, and within 30–37 days after the last study dose. Validated assays were used to measure concentrations of ADC, TAb, and free MMAE in serum or plasma and to assess ATA levels.
All patients who received any amount of study drug were included in the primary analyses of efficacy endpoints and safety analyses. The PK analyses included data from patients in the PK cohort who received at least 3 of 4 doses of the study drug through cycle 2 Day 1 and had at least five blood samples collected and assayed for measurements of ADC, TAb, or free MMAE concentrations to determine at least one PK parameter.

[3] = system: patients with locally advanced or mUC previously treated with platinum-based chemotherapy and PD-1/L1 inhibitors; details: cited from earlier work
[4] = system: patients with previously treated locally advanced or mUC; details: EV-301; cited from earlier work
[5] = serum, Cycle 1 Day 1, PK cohort
[6] = serum, Cycle 1 Day 15, PK cohort

Substance: enfortumab vedotin: fully human monoclonal ADC directed to Nectin-4, delivering intracellular monomethyl auristatin E (MMAE) to tumor cells
- Treatment-emergent adverse event: Diarrhea ([1]; grade ≥ 3, N = 40): 2 (5.0) n (%)
- Treatment-emergent adverse event: Hyperglycemia ([1]; grade ≥ 3, N = 40): 3 (7.5) n (%)
- Treatment-emergent adverse event: Hypokalemia ([1]; grade ≥ 3, N = 40): 2 (5.0) n (%)
- Treatment-emergent adverse event: Hyponatremia ([1]; grade ≥ 3, N = 40): 5 (12.5) n (%)
- Treatment-emergent adverse event: Hypophosphatemia ([1]; grade ≥ 3, N = 40): 5 (12.5) n (%)
- Treatment-emergent adverse event: Nausea ([1]; grade ≥ 3, N = 40): 0 n (%)
- Treatment-emergent adverse event: Neutrophil count decreased ([1]; grade ≥ 3, N = 40): 8 (20.0) n (%)
- Treatment-emergent adverse event: Pneumonia ([1]; grade ≥ 3, N = 40): 5 (12.5) n (%)
- Treatment-emergent adverse event: Pruritus ([1]; grade ≥ 3, N = 40): 2 (5.0) n (%)
- Treatment-emergent adverse event: Pyrexia ([1]; grade ≥ 3, N = 40): 0 n (%)
- Treatment-emergent adverse event: Rash ([1]; grade ≥ 3, N = 40): 5 (12.5) n (%)
- Treatment-emergent adverse event: Rash maculo-papular ([1]; grade ≥ 3, N = 40): 4 (10.0) n (%)
- Treatment-emergent adverse event: Vomiting ([1]; grade ≥ 3, N = 40): 0 n (%)
- Treatment-emergent adverse event: White blood cell count decreased ([1]; grade ≥ 3, N = 40): 5 (12.5) n (%)
- Treatment-related adverse event of special interest: Corneal disorder/blurred vision ([1]; grade ≥ 3, N = 40): 0 n (%)
- Treatment-related adverse event of special interest: Dry eye ([1]; grade ≥ 3, N = 40): 0 n (%)
- Treatment-related adverse event of special interest: Hyperglycemia (composite) ([1]; grade ≥ 3, N = 40): 5 (12.5) n (%)
- Treatment-related adverse event of special interest: Infusion-related reaction ([1]; grade ≥ 3, N = 40): 0 n (%)
- Treatment-related adverse event of special interest: Peripheral neuropathy (composite) ([1]; grade ≥ 3, N = 40): 0 n (%)
- Treatment-related adverse event of special interest: Skin reaction (composite) ([1]; grade ≥ 3, N = 40): 13 (32.5) n (%)
- Treatment-related adverse event: Alopecia ([1]; grade ≥ 3, N = 40): 0 n (%)
- Treatment-related adverse event: Anemia ([1]; grade ≥ 3, N = 40): 6 (15.0) n (%)
- Treatment-related adverse event: Aspartate aminotransferase increased ([1]; grade ≥ 3, N = 40): 1 (2.5) n (%)
- Treatment-related adverse event: Constipation ([1]; grade ≥ 3, N = 40): 0 n (%)
- Treatment-related adverse event: Decreased appetite ([1]; grade ≥ 3, N = 40): 1 (2.5) n (%)
- Treatment-related adverse event: Diarrhea ([1]; grade ≥ 3, N = 40): 2 (5.0) n (%)
- Treatment-related adverse event: Hyperglycemia (preferred term) ([1]; grade ≥ 3, N = 40): 3 (7.5) n (%)
- Treatment-related adverse event: Hypokalemia ([1]; grade ≥ 3, N = 40): 2 (5.0) n (%)
- Treatment-related adverse event: Hyponatremia ([1]; grade ≥ 3, N = 40): 5 (12.5) n (%)
- Treatment-related adverse event: Hypophosphatemia ([1]; grade ≥ 3, N = 40): 4 (10.0) n (%)
- Treatment-related adverse event: Nausea ([1]; grade ≥ 3, N = 40): 0 n (%)
- Treatment-related adverse event: Neutrophil count decreased ([1]; grade ≥ 3, N = 40): 8 (20.0) n (%)
- Treatment-related adverse event: Pruritus ([1]; grade ≥ 3, N = 40): 2 (5.0) n (%)
- Treatment-related adverse event: Rash ([1]; grade ≥ 3, N = 40): 5 (12.5) n (%)
- Treatment-related adverse event: Rash maculopapular ([1]; grade ≥ 3, N = 40): 4 (10.0) n (%)
- Treatment-related adverse event: White blood cell count decreased ([1]; grade ≥ 3, N = 40): 5 (12.5) n (%)
- Dose interruption due to fatigue, patients ([1]; most common TRAE leading to dose interruption): 10.0%
- Dose reduction due to rash, patients ([1]; most common TRAE leading to dose reduction): 22.5%
- Hyperglycemia leading to treatment discontinuation, patients ([1]; one patient): 2.5%
- Treatment-related hyperglycemia grade 4, patients ([1]; one patient): 2.5%
- Death due to a TRAE, patients ([1]; one patient, acute coronary syndrome): 2.5%
- Treatment discontinuation due to TRAEs, patients ([1]; two patients: acute coronary syndrome, hyperglycemia and rash): 5.0%
- Deaths following malignant neoplasm progression, patients ([1]; two patients, not considered treatment-related): 5.0%
- Serum concentration at end of infusion ([2]; cycle 1 Day 1, Non-PK cohort): 25,300 (3830) [23] ng/mL
- Serum concentration at end of infusion ([2]; cycle 1 Day 1, PK cohort): 27,700 (4410) [13] ng/mL
- Serum concentration at end of infusion ([2]; cycle 1 Day 8, Non-PK cohort): 24,900 (5400) [17] ng/mL
- Serum concentration at end of infusion ([2]; cycle 1 Day 8, PK cohort): 27,400 (4390) [12] ng/mL
- Serum concentration at end of infusion ([2]; cycle 1 Day 15, Non-PK cohort): 22,000 (5980) [11] ng/mL
- Serum concentration at end of infusion ([2]; cycle 1 Day 15, PK cohort): 27,500 (3820) [10] ng/mL
- AUC0–7d [2, 5]: 32.4 (6.2) day μg/mL
- C max [2, 5]: 28.1 (4.52) μg/mL
- AUC0–7d [2, 6]: 36.5 (7.9) day μg/mL
- C max [2, 6]: 27.6 (4.01) μg/mL
- Time of peak serum concentration ([2]; serum, PK cohort cycle 1): at the end of the enfortumab vedotin infusion
- Median duration of response (DOR) ([3]; EV-201): 7.6 months
- Objective response rate (ORR) ([3]; EV-201 cohort 1 (n = 125)): 44%
- Median OS [4]: 12.88 months
- Median PFS [4]: 5.6 months
- Probability of OS at 6 months [4]: approximately 80%
